Measured values reported in publication PMC4824412.
“And” between values parts separate entries of the source, which are not always exact repeats. Equal entries are not always repeated.

Key:
[1] = biological target: GARPTS, soluble tail switch mutant of human GARP (glycoprotein A repetitions predominant) (human) (UniProt Q14392); experiment: non-reducing SDS-PAGE and western blot of disulfide-linked complexes; GARPTS (300 ng) and a mixture of pro-TGFβ and latent TGFβ (600 ng) incubated overnight at RT in redox buffer (oxidized glutathione and 2 mM free cysteine), no pull-down; 10% gel, non-reducing; anti-Strep-tag or anti-His-tag antibodies
[2] = biological target: GARPTS, soluble tail switch mutant of human GARP (glycoprotein A repetitions predominant) (human) (UniProt Q14392)

| Substance | stoichiometry N (GARP per TGFβ) [1] | proliferation of Mv1Lu cells with a constant 60 ng/ml latent TGFβ pre-incubated with 10-40 ng/ml GARPTS; value at approximately 40 ng/ml (0.5 nM) GARPTS [2] [%] |
| --- | --- | --- |
| recombinant latent TGFβ (furin-cleaved pro-TGFβ; LAP non-covalently bound to the mature cytokine) (complex) | 2 and 1 | < 60 |
| recombinant pro-TGFβ (not cleaved by furin) (natural protein) | 2 and 1 |  |
